Results on 5 molecules are retold here after publication PMC4459817, “Vasculotide reduces endothelial permeability and tumor cell extravasation in the absence of binding to or agonistic activation of Tie2” (EMBO Molecular Medicine, 2015).

The subject of assay [1] is Tie2 (Ang1 or Ang2 binding). The settings on record: synthetic free form, ref Tournaire et al, 2004, cited from earlier work; for inhibition of Ang1 or Ang2 binding to Tie2: competition assays, tested up to 1 mM. From the text: For therapeutic use, recombinant variants or mimetics of multimeric Ang1 have been engineered, including Ang1* and Ang-F1-Fc-F1/Bow-Ang1 (Davis et al, [2003]; Daly et al, [2013]), MAT-Ang1 and COMP-Ang1 (Cho et al, [2004]; Koh, [2013]). […] The main focus of the original paper that discovered T7 (Tournaire et al, [2004]) was actually on a different peptide called ‘T4’ (NLLMAAS) and its potential use as a Tie2 inhibitor/antagonist.

Another assay has as its target T1, human Tie2-Fc (hTie2-Fc) (Homo sapiens, UniProt Q02763).
T1 construct: Purified human or mouse Tie2-Fc (i.e., Fc-conjugated extracellular domains of Tie2); purchased R&D Systems 313-TI-100
The assay is described as follows: SPR binding to human Tie2-Fc. The note with it: human Tie2-Fc, 0.625–10 nM, 37°C, pH 7.4, Fig9C. From the text: To better understand the difficulties we had in observing Tie2 activation by VT, we sought to characterize the binding affinity and kinetics of VT to Tie2. Purified human or mouse Tie2-Fc (i.e., Fc-conjugated extracellular domains of Tie2) were first coupled to protein A sepharose beads for pull-down experiments (Fig9A and B) or immobilized on a Biacore CM5 sensor chip for surface plasmon resonance (SPR) experiments (Fig9C and Supplementary Fig S3).
Figure 9 Binding of Vasculotide vs. Ang1 variants to the extracellular domain of Tie2 • A–B Pull-down assay. Input ligands—rhAng1 (A) and VT (B)—were incubated with either protein A sepharose beads only, bead-conjugated mouse Tie2-Fc (mTie2), or bead-conjugated human Tie2-Fc (hTie2). […] The ‘unbound’ fraction is 7% of residual/free ligands remaining in the supernatant. • C Quantitative kinetics analysis by SPR. All analytes were run at increasing concentrations of 0.625, 1.25, 2.5, 5, and 10 nM, at 37°C and pH 7.4. […] Source data are available online for this figure. […]
(§1) 9. Tie2 Receptor-Binding Assays
(§2) Vasculotide (VT) was manufactured by Bachem UK Ltd. T7c (CHHHRHSF) was synthesized by Genscript (Piscataway, NJ, USA). PEG-Cys consists of a single cysteine reacted to each of the 4 arms of PEG-maleimide (Sunbright PTE-100MA, NOF Corporation, Tokyo, Japan). BowAng1 (Ang1-Fd-Fc-Fd) was made and provided by Regeneron Pharmaceuticals, Inc. (Tarrytown, NY, USA). COMP-Ang1 was purified in the Kerbel lab from serum-free culture media conditioned by an engineered CHO cell line provided by Dr. Gou Young Koh (KAIST), according to published protocols (Hwang et al, 2008).
(§3) Recombinant human Angiopoietin-1 (rhAng1) and Vascular Endothelial Growth Factor ( rhVEGF) were […]
(§4) purchased from R&D Systems. […]
(structural/molecular weight control for VT), and 40 μL of supernatant (7% of residual/unbound ligand) – were similarly boiled in SDS sample buffer. Ang1 samples and controls were resolved by 7.5% polyacrylamide gel electrophoresis (PAGE), electroblotted onto PVDF membranes, and probed with an anti-Ang1 antibody (R&D Sytems, AF923; diluted 1:2,000 in TBS supplemented with 7% BSA and 0.1% Tween-20) at 75kDa (reduced monomers). VT samples and controls were resolved by 17% PAGE, blotted onto PVDF membranes, and probed with an anti-PEG antibody (Silver Lake Research, CH2074; diluted 1:4,000 in TBS supplemented with 7% BSA and 0.05% CHAPS*) at higher “apparent” molecular weights than the expected 14 and 10kDa due to their polymeric nature and large hydrodynamic radii (Zheng et al, 2007). *Note: non-ionic, PEO-based, polymer detergents were avoided at these steps as they cross-react with the anti-PEG antibody used for detecting VT.
Surface Plasmon Resonance (SPR) Experiments: The binding of analytes – VT, T7c peptide, PEG-Cys, rhAng1, COMP-Ang1, BowAng1, and rhVEGF – to the extracellular domain of Tie2 were […]
investigated by SPR using a Biacore T200 Instrument (GE Healthcare). For qualitative binding analysis, mTie2-Fc was dissolved in 10mM acetate buffer (pH 4.5) and immobilized at high density onto a CM5 sensor chip using amine coupling chemistry as described by the manufacturer to a response of 11,500RU.
Binding analysis were performed by exposure of immobilized mTie2-Fc to the analytes diluted in HBS-EP (0.01M HEPES pH 7.4, 0.15M NaCl, 3mM EDTA, 0.005% v/v Tween-20), which was supplemented with 1mg/mL carboxymethyl dextran (NSB reducer, GE Healthcare) to reduce non-specific binding to the sensor chip. Analytes were injected at 30μL/min (association time 120s, dissociation time 120s) at 37 °C, and the chip surface was regenerated each cycle by a 60s pulse of 4M MgCl2. To quantitatively determine the kinetic properties of the interaction (KD, kd, ka) and avoid mass transport limitations, mTie2-Fc and hTie2-Fc were immobilized at low density (1,000-1,200RU) onto separate flow cells of the CM5 chip using amine coupling chemistry. Kinetic analyses were performed using a single-cycle kinetic […]
(In general: In SPR one partner is held on a chip, and binding of the other changes the refractive index at the surface.)

Another assay has as its target T2, mouse Tie2-Fc (mTie2-Fc) (Mus musculus, UniProt Q02858).
T2 construct: Purified human or mouse Tie2-Fc (i.e., Fc-conjugated extracellular domains of Tie2); purchased R&D Systems 762-T2-100
The assay is described as follows: SPR binding to mouse Tie2-Fc. The note with it: mouse Tie2-Fc (low- and high-density), 37°C, pH 7.4, Supplementary Fig S3.
From the text: To better understand the difficulties we had in observing Tie2 activation by VT, we sought to characterize the binding affinity and kinetics of VT to Tie2. Purified human or mouse Tie2-Fc (i.e., Fc-conjugated extracellular domains of Tie2) were first coupled to protein A sepharose beads for pull-down experiments (Fig9A and B) or immobilized on a Biacore CM5 sensor chip for surface plasmon resonance (SPR) experiments (Fig9C and Supplementary Fig S3). […]
as §1, §2, §3, §4
(structural/molecular weight control for VT), and 40 μL of supernatant (7% of residual/unbound ligand) – were similarly boiled in SDS sample buffer. […]
Binding analysis were performed by exposure of immobilized mTie2-Fc to the analytes diluted in HBS-EP (0.01M HEPES pH 7.4, 0.15M NaCl, 3mM EDTA, 0.005% v/v Tween-20), which was supplemented with 1mg/mL carboxymethyl dextran (NSB reducer, GE Healthcare) to reduce non-specific binding to the sensor chip. […] To quantitatively determine the kinetic properties of the interaction (KD, kd, ka) and avoid mass transport limitations, mTie2-Fc and hTie2-Fc were immobilized at low density (1,000-1,200RU) onto separate flow cells of the CM5 chip using amine coupling chemistry. […] All data were analysed using BIA Evaluation Software 2.0 (GE Healthcare) to calculate kd, ka and KD using the 1:1 ligand binding model. […]

Assay [2] has as its target T3, mouse Tie2-Fc (Fc-conjugated extracellular domain of Tie2) (mouse, UniProt Q02858 23-746).
T3 chain: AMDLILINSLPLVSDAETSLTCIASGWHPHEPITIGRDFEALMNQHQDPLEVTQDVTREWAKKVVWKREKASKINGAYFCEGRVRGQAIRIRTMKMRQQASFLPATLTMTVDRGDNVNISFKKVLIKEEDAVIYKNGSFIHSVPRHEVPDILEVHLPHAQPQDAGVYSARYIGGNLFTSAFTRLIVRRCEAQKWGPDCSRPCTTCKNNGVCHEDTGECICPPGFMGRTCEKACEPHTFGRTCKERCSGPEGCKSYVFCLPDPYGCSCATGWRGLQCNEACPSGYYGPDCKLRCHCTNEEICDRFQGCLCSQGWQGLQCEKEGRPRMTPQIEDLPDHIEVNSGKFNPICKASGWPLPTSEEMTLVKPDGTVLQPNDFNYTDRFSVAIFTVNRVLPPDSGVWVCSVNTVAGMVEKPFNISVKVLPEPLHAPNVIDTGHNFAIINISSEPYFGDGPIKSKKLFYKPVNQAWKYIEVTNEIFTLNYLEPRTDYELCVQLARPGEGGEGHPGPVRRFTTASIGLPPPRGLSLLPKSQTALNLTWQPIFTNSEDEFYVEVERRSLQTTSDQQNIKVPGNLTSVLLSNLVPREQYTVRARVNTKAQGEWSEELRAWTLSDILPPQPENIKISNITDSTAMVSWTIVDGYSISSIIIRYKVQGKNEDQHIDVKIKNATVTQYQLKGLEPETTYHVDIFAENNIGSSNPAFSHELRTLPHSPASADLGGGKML
As to the kind of experiment: SPR.

Assay [3] concerns the target T4, human Tie2-Fc (Fc-conjugated extracellular domain of Tie2) (human, UniProt Q02763 23-748).
T4 chain: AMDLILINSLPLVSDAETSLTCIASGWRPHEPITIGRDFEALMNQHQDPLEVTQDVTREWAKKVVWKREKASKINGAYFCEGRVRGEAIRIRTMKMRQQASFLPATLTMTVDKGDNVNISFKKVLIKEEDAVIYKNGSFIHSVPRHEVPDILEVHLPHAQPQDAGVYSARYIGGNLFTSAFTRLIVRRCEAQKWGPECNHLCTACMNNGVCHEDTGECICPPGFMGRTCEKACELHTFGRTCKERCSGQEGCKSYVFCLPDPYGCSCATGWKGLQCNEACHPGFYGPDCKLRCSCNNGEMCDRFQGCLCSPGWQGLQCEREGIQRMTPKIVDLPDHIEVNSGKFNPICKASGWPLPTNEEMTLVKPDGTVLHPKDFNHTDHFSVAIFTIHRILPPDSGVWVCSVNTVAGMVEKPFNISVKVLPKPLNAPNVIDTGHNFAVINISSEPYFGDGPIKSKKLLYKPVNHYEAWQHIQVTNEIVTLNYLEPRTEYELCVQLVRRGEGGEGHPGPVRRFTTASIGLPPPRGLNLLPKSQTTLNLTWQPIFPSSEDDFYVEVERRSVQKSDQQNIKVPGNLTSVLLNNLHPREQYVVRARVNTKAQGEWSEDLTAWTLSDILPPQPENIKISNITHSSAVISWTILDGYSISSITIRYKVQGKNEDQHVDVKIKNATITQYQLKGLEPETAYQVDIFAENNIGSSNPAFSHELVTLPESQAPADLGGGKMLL
As to the kind of experiment: SPR.

In assay [4] the target is T4, human Tie2-Fc (Fc-conjugated …). The assay is described as follows: SPR.
In assay [5] the target is T3, mouse Tie2-Fc (Fc-conjugated …). The assay is described as follows: SPR.

Consider “HHHRHSF [T7, HHHRHSF, heptapeptide identified by phage display, synthetic free form]”, for which the “inhibition of Ang1 or Ang2 binding to Tie2” value in assay [1] is given as “did not inhibit Ang1 or Ang2 binding to Tie2”.

As to NLLMAAS [T4], in assay [1] (ELISA and SPR, read-out: Ki, competitive inhibition of Ang1 or Ang2 binding to Tie2), the inhibition constant Ki was roughly 300000 nM. For the same molecule, the “inhibition of Ang1 or Ang2 binding to Tie2” value in assay [1] is “able to competitively inhibit Ang1 or Ang2 binding to Tie2”.

Take VEGF: the “binding to Tie2-Fc” value at human Tie2-Fc (hTie2-Fc) is listed as “no binding to Tie2-Fc was detectable”; at human Tie2-Fc (hTie2-Fc) (listed as rhVEGF) it was “no detectable binding”; on mouse Tie2-Fc (mTie2-Fc) it was “no binding to Tie2-Fc was detectable”.

B1: COMP-Ang1 (ligand)
chain: DLAPQMLRELQETNAALQDVRELLRHRVKEITFLKNTVMECDACGDTVHNLVNLCTKEGVLLKGGKREEEKPFRDCADVYQAGFNKSGIYTIYINNMPEPKKVFCNMDVNGGGWTVIQHREDGSLDFQRGWKEYKMGFGNPSGEYWLGNEFIFAITSQRQYMLRIELMDWEGNRAYSQYDRFHIGNEKQNYRLYLKGHTGTAGKQSSLILHGADFSTKDADNDNCMCKCALMLTGGWWFDACGPSNLNGMFYTAGQNHGKLNGIKWHYFKGPSYSLRSTTMMIRPLDF
For B1, the koff in assay [2] worked out at 0.00208 s⁻¹; in assay [3], 0.00361 s⁻¹. In addition, the Kd in assay [4] came to 1.36 nM; in assay [5], 1.32 nM.

B2: BowAng1 (Ang-F1-Fc-F1) (ligand)
chain: RDCADVYQAGFNKSGIYTIYINNMPEPKKVFCNMDVNGGGWTVIQHREDGSLDFQRGWKEYKMGFGNPSGEYWLGNEFIFAITSQRQYMLRIELMDWEGNRAYSQYDRFHIGNEKQNYRLYLKGHTGTAGKQSSLILHGADFSTKDADNDNCMCKCALMLTGGWWFDACGPSNLNGMFYTAGQNHGKLNGIKWHYFKGPSYSLRSTTMMIRPLDFRDCADVYQAGFNKSGIYTIYINNMPEPKKVFCNMDVNGGGWTVIQHREDGSLDFQRGWKEYKMGFGNPSGEYWLGNEFIFAITSQRQYMLRIELMDWEGNRAYSQYDRFHIGNEKQNYRLYLKGHTGTAGKQSSLILHGADFSTKDADNDNCMCKCALMLTGGWWFDACGPSNLNGMFYTAGQNHGKLNGIKWHYFKGPSYSLRSTTMMIRPLDF
Take B2: the koff in assay [2] turned out to be 0.00231 s⁻¹; in assay [3], 0.00232 s⁻¹. Besides, the Kd in assay [4] was determined as 0.611 nM; in assay [5] it was 0.465 nM.

As usually defined, the Ki is the dissociation constant of the complex between target and ligand, obtained from inhibition or displacement. For orientation: koff means the first-order rate constant of dissociation. Low values mean a long-lived complex, high ones a short-lived complex. By Kd is commonly meant the equilibrium constant for the complex coming apart. Read a high Kd as weaker binding.
